Entries after “also recorded” stand apart in the source; their conditions may differ.
Columns and labels:
[1] = target: T1, interaction of transfected MLL with endogenous menin (Homo sapiens, UniProt O00255); assay: Disruption of binding of transfected FLAG-tagged MLL 1-330 to endogenous menin (anti-FLAG immunoprecipitation, anti-menin Western blot); conditions: each peptide tested at 10, 20, and 30 μM
T1 construct: endogenous in cells; host or cells: 293 cells (lysate; cells transfected with FLAG-MLL 1-330)
T1 sequence (O00255 1-610): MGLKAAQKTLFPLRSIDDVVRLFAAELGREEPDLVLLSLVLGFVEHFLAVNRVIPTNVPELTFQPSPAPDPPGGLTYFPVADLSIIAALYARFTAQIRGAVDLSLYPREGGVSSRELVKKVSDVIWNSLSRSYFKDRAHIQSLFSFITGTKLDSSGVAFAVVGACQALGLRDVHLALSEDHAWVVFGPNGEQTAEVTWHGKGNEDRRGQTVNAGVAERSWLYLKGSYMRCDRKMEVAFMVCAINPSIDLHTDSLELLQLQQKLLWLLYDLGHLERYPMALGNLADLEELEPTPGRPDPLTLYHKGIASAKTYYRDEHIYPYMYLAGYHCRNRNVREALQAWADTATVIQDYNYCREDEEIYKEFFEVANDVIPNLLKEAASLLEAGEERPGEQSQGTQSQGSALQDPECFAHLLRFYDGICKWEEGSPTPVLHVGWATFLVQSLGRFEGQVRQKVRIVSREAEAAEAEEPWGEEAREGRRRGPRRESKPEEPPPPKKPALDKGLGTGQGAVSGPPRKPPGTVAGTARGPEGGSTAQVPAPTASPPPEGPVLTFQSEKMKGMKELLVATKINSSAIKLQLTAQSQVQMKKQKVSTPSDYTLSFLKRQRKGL
Description: To determine the precise domain that mediates the binding of MLL to menin, a series of peptides from the N-terminus of MLL were synthesized. To assess disruption of binding of transfected MLL to endogenous menin, a FLAG-tagged MLL 1-330 construct was transfected into 293 cells and the cell lysates were incubated with a series of peptides listed below or with water as a control. Cell lysates were immunoprecipitated with anti-FLAG antibody (Sigma), separated by SDS-PAGE and blotted with an anti-menin antibody (Bethyl Laboratories Inc, or Santa-Cruz). The amino acid numbers from the N-terminus of MLL are indicated below (preceding the amino acid sequence) for the peptides analyzed for their ability to disrupt the interaction of MLL and menin.
Conditional inactivation of menin results in the reversal of the transforming properties of MLL fusion proteins. A high affinity menin binding domain has been localized to the N-terminal residues of MLL, and deletion of residues 6 through 10 of MLL prevents MLL-ELL from transforming hematopoietic progenitor cells. To target the MLL-menin interaction, a series of peptides were developed for the potential to block the interaction of menin with MLL. To establish the activity of these peptides, lysates of cells transfected with FLAG-tagged N-terminal MLL sequences were examined. The lysates were immunoprecipitated with a FLAG antibody, incubated with either an MLL peptide or a control scrambled peptide, and then blotted with an anti-menin antibody. […] To examine the activity of the TAT-MLL peptide, mouse and human leukemia cell lines were treated with the TAT-MLL peptide. […] (#TIB-202, American Type Culture Collection, Manassas, Va.).

Leukemia cell lines = assay: Relative growth inhibition of TAT-MLL vs TAT-MLL mutant (MTS cell proliferation assay); format: cell-based

**Q.** What does the source list for “RKKRRQRRR-GG-CRWRFGARGG (SEQ ID NO: 16) (RKKRRQRRRGGCRWRFGARGG) [TAT-MLL-G 5-14, TAT-MLL 5-14 peptide with prolines replaced by glycines, used as a control, reference compound]”?
**A.** inhibition of the binding of transfected MLL 1-330 to endogenous menin (Western blot, FIG. 2) [1]: did not inhibit the binding of MLL1-330 with menin; also recorded: did not block the interaction of MLL with menin; effect on proliferation, TAT-MLL vs TAT-MLL mutant (FIG. 6) (Leukemia cell lines): significantly decreases the effect of the peptide on proliferation

Reference: patent US8242078B2, “Therapeutics to inhibit MLL-menin interaction for treating leukemia” (The University of Chicago, priority 2006, dated 2012)
